These results are taken from patent US20090081786A1 (published 2009).

B1: myelin basic protein (MBP)-delta V1 PKC fusion protein (other)
chain: MAPFLRISFNSYELGSLQAEDDASQPFCAVKMKEALTTDRGKTLVQKKPTMYPEWKSTFDAHIYEGRVIQIVLMRAAEDPMSEVTVGVSVLAERCKKNNGKAEFWLDLQPQAKVLMCVQYFLEDGDCKQSMRSEEEAMFPTMNRRGAIKQAKIHYIKNHE
notes: Used as crude bacterial cell lysate (30 µg) containing the fusion protein; also called MBP-δV1; δ-V1; not shown: fusion tag printed as 'myelin basic protein (MBP)'
B2: annexin V (other)
chain: AQVLRGTVTDFPGFDERADAETLRKAMKGLGTDEESILTLLTSRSNAQRQEISAAFKTLFGRDLLDDLKSELTGKFEKLIVALMKPSRLYDAYELKHALKGAGTNEKVLTEIIASRTPEELRAIKQVYEEEYGSSLEDDVVGDTSGYYQRMLVVLLQANRDPDAGIDEAQVEQDAQALFQAGELKWGTDEEKFITIFGTRSVSHLRKVFDKYMTISGFQIEETIDRETSGNLEQLLLAVVKSIRSIPAYLAETLYYAMKGAGTDDHTLIRVMVSRSEIDLFNIRKEFRKNFATSLYSMIKGDTSGDYKKALLLLCGEDD
notes: 10 µg annexin V was run on SDS-PAGE, blotted to nitrocellulose and used as the immobilized partner in the overlay assay; also called immobilized annexin V
B3: ε-V1 (V1 region of ε-PKC) (other)
chain: MVVFNGLLKIKICEAVSLKPTAWSLRHAVGPRPQTFLLDPYIALNVDDSRIGQTATKQKTNSPAWHDEFVTDVCNGRKIELAVFHDAPIGYDDFVANCTIQFEELLQNGSRHFEDWIDLEPEGKVYVIIDLSGSSGEAPKDNEE
B4: glutathione-S-transferase-delta V5 PKC fusion protein (other)
chain: PKVKSPSDYSNFDPEFLNEKPQLSFSDKNLIDSMDQEAFHGFSFVNPKFEQFLDI
notes: Used as crude bacterial cell lysate (30 µg) containing the fusion protein; also called GST-δV5; δ-V5; not shown: glutathione-S-transferase (GST) fusion tag

The target in experiment [1] is B2. Put plainly: overlay assay on blotted annexin V (figure legend, FIGS. 1A-D).
Protocol: (§1) The strips were incubated with blocking buffer (50 mM Tris pH 7.5, 200 mM NaCl, 3% bovine serum albumin, 0.1% PEG20). […] The strips where then washed with wash buffer (50 mM Tris pH 7.5, 200 mM NaCl, 0.1% PEG20, 12 mM β-mercaptoethanol), and then incubated with fixative (0.2% formaldehyde in PBS) and neutralizing solution (0.2M glycine in PBS) at room temperature 20 min each. After washing with buffer, the strips were probed with antibodies according to the overlay protein, and resulting bands were visualized using ECL Western blotting.
Another experiment addresses T1, full-length δ-PKC (Mus musculus (Mouse), UniProt P28867 1-674).
T1 construct: Full-length δ-PKC in the overlay assay; also called δ-protein kinase C; delta PKC
Described as above.

The target in experiment [2] is B2. Put plainly: overlay assay on annexin V blotted to nitrocellulose, FIG. 1D.
Protocol: as §1
In experiment [3] the target is B2. Put plainly: overlay assay on blotted annexin V, FIG. 1D.
Protocol: as §1

Protocol for full-length δ-PKC: as §1

On to B1, for which the binding result with annexin V [1] is recorded as “binds”.
Regarding B2, the binding result with full-length δ-PKC was “binds”.
Take B3: the binding result in the experiment with annexin V [2] is “no binding”.
Turning to B4, in the experiment with annexin V [3], the binding result is reported as “binds”.
